Read-outs that look alike come from different tables or passages of the source.

The target of assay [1] is T1, 72 kDa heat shock protein (HSP72), recombinant human (human, UniProt P0DMV8 1-641). The experiment in a line: SPR. In general terms: In SPR one partner is held on a chip, and binding of the other changes the refractive index at the surface.
Assay [2] deals with T1, 72 kDa heat shock protein (HSP72), …. The experiment in a line: SPR. The source holds these as a separate data set.

T1 sequence (P0DMV8 whole entry): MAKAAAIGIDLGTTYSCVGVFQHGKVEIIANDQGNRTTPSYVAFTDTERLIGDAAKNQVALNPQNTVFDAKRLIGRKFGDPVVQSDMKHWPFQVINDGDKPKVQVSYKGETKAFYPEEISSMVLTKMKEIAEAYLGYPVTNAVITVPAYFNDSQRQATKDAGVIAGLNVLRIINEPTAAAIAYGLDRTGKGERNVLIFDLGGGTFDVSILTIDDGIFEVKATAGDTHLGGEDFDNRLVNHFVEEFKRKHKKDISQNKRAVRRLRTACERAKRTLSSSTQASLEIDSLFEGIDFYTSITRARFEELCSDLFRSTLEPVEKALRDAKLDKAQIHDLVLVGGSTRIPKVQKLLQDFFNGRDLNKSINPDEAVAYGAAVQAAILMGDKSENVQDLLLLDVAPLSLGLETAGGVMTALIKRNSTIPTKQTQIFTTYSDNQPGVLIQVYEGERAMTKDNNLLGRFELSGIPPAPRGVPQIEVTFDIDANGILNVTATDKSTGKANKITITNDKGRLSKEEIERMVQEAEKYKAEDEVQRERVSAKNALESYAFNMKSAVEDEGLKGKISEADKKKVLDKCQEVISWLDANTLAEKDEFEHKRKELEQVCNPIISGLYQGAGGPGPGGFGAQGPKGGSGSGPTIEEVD

As usually defined, the Kd is the constant that tells how readily two partners part at equilibrium. In general, kon refers to a measure of how fast the partners come together. As to DTDTPIVYNDRNLLD [Peptide N, the extreme carboxyl terminus (15 amino acids) of the Edmonston MV N protein], in assay [1], the Kd was 1000 nM and the kon turned out to be 357 M⁻¹ s⁻¹. Further, the Kd in assay [2] worked out at 4000 nM.

(Values after paper PMC248471 (Biological Procedures Online, 2003).)
